US20050222029A1 (MYRIAD GENETICS, published 2005)

Experiments:
Experiment in all cases: yeast two-hybrid
[1] = molecular target: T1, Serum deprivation response 75-258 (human, UniProt O95810 75-258)
T1 construct: prey (Gal4 AD-HA fusion)
T1 sequence (looked up): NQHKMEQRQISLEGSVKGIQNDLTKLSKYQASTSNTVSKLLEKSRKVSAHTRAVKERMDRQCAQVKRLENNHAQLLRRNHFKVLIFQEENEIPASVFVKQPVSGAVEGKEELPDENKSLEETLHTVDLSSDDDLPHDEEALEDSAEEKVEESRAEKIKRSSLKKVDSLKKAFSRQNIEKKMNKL

[2] = molecular target: T2, Mitotic spindle coiled-coil related protein 668-895 (human, UniProt Q96R06 668-895)
T2 construct: prey (Gal4 AD-HA fusion)
T2 sequence (looked up): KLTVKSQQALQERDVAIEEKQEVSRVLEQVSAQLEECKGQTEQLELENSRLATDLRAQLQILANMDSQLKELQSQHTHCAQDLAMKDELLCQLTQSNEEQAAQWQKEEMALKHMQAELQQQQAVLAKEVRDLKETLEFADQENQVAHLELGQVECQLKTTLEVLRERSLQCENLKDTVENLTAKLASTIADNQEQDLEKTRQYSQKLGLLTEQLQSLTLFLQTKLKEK

Hook2 protein 290-555 = molecular target: T3, Hook2 protein 290-555 (human, UniProt Q96ED9 290-555)
T3 construct: prey (Gal4 AD-HA fusion)
T3 sequence (looked up): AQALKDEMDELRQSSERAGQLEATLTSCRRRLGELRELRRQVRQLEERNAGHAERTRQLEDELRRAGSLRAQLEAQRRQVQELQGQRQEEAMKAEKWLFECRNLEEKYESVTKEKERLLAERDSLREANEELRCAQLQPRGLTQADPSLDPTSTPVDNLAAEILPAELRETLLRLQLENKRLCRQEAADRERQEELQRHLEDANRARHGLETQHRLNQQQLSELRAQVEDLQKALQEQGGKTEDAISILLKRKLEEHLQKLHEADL

Hook2 protein 201-559 = molecular target: T4, Hook2 protein 201-559 (human, UniProt Q96ED9 201-559)
T4 construct: prey (Gal4 AD-HA fusion)
T4 sequence (looked up): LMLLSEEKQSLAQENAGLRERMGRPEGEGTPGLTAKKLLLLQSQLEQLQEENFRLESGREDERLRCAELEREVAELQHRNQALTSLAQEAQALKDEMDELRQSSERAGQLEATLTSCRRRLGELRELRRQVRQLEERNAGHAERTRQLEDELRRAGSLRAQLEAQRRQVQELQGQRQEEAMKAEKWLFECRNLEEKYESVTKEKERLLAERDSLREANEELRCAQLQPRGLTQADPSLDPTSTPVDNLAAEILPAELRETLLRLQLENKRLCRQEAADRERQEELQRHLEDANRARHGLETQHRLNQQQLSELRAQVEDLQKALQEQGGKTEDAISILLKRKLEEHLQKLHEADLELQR

Intersection 1 210-633 = molecular target: T5, Intersection 1 210-633 (human, UniProt Q15811 210-633)
T5 construct: prey (Gal4 AD-HA fusion); also called Intersectin 1; ITSN1
T5 sequence (looked up): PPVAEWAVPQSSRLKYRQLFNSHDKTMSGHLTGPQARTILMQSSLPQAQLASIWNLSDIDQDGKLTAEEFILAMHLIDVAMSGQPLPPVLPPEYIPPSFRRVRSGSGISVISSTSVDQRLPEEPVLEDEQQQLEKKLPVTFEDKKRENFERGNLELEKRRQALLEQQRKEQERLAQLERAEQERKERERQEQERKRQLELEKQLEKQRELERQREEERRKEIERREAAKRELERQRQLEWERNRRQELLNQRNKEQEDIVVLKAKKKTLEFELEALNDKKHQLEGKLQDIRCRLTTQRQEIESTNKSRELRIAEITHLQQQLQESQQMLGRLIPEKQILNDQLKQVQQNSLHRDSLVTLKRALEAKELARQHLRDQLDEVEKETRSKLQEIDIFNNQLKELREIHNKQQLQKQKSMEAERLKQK

Pallid 21-172 = molecular target: T6, Pallid 21-172 (human, UniProt Q9UL45 21-172)
T6 construct: prey (Gal4 AD-HA fusion)
T6 sequence (looked up): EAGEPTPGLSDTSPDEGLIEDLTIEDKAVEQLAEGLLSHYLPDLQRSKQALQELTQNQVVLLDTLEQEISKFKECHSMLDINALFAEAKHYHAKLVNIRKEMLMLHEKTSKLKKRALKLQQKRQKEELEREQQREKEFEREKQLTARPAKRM

Keratin 5 282-448 = molecular target: T7, Keratin 5 282-448 (human, UniProt P13647 282-448)
T7 construct: prey (Gal4 AD-HA fusion)
T7 sequence (looked up): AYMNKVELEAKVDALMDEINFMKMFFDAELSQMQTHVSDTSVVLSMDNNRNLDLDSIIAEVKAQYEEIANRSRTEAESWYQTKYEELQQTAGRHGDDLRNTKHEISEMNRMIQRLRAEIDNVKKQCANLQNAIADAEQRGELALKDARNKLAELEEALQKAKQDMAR

[3] = molecular target: T8, GTPase-activiating protein 1 1413-1567 (human, UniProt P46940 1413-1567)
T8 construct: prey (Gal4 AD-HA fusion); also called IQGAP1; IQGAP
T8 sequence (looked up): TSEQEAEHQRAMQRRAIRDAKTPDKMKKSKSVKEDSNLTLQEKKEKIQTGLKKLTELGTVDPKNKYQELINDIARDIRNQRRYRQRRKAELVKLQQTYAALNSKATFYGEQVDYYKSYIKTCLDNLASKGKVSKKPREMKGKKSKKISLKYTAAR

Measured: binding result

B1: Tumor Suppressor (TSG101) 240-391 (other, human, UniProt Q99816 240-390, looked up)
chain: WRMKEEMDRAQAELNALKRTEEDLKKGHQKLEEMVTRLDQEVAEVDKNIELLKKKDEELSSALEKMENQSENNDIDEVIIPTAPLYKQILNLYAEENAIEDTIFYLGEALRRGVIDLDVFLKHVRLLSRKQFQLRALMQKARKTAGLSDLY
notes: range 240-391; bait (Gal4 DBD fusion); also called TSG101 240-390
binds: all assays above
